Assay type: physicochemical
Source text: Reaction of RGD with BMA[21,22] in a basic solution of DMF followed by semi-preparative reverse-phase C18 HPLC provided the diphosphine conjugate DP-RGD (Scheme 1) in ≥95% purity and 86% yield. DP-RGD was characterised by ^1H, ^13C and ^31P NMR, analytical HPLC and HR-ESI-MS (Fig. S1–S6 and Tables S1, S2 ^†).

N=C(N)NCCC[C@@H]1NC(=O)[C@H](CCCCNC(=O)/C(=C(\C(=O)O)P(c2ccccc2)c2ccccc2)P(c2ccccc2)c2ccccc2)NC(=O)[C@@H](Cc2ccccc2)NC(=O)[C@H](CC(=O)O)NC(=O)CNC1=O [DP-RGD]
stability in acidic solutions (in words): decomposed to re-form RGD and BMA | stability to oxidation in solution (in words): slowly oxidised in solution to phosphine oxide derivatives | stability to oxidation in the solid state (in words): stable to oxidation
